In patent US12194076B2, “Methods and compositions for treating myelofibrosis” (Acceleron Pharma Inc., priority 2016, dated 2025):

T1: GDF8 (Homo sapiens, UniProt O14793)
T1 sequence (O14793 267-375): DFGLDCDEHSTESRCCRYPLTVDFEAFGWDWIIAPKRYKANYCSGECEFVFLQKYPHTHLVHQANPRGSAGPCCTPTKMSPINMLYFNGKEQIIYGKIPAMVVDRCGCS

T2: Activin A (Homo sapiens, UniProt P08476)
T2 sequence (P08476 311-426): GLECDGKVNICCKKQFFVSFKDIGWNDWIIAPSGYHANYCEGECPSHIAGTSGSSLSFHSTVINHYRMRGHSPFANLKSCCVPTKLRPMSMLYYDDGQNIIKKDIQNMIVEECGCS

T3: GDF11 (Homo sapiens, UniProt O95390)
T3 sequence (O95390 299-407): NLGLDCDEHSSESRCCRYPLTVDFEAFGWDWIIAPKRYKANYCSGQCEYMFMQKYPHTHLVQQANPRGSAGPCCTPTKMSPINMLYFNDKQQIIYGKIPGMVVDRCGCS


Tests used:
[1] = test system: myelofibrosis patients with splenomegaly; conditions: cited from earlier work
GDF8 = biological target: T1, GDF8; assay: Biacore assay, receptor captured with anti-hFc antibody, GDF8 injected; format: binding; conditions: for Koff (1/s), GDF8: receptor captured via anti-hFc antibody; for myostatin binding, in words: cell-free Biacore assay
Method: (§1) Binding of certain ActRIIB-Fc proteins and GDF traps to ligands was tested in a Biacore™ assay.
(§2) The ActRIIB-Fc variants or wild-type protein were captured onto the system using an anti-hFc antibody. Ligands were injected and flowed over the captured receptor proteins.

Activin A [2] = biological target: T2, Activin A; assay: Biacore assay, receptor captured with anti-hFc antibody, activin A injected; format: binding; conditions: for Koff (1/s), Activin A / Kon (1/Ms), Activin A / KD (M), Activin A: receptor captured via anti-hFc antibody; for binding to activin A, in words: cell-free Biacore assay
Method: as §1, §2

GDF11 [3] = biological target: T3, GDF11; assay: A-204 reporter gene assay, inhibition of GDF-11 signaling; format: cell-based; parameters: host or cells: added to A-204 cells (human rhabdomyosarcoma)
Description: (§3) An A-204 reporter gene assay was used to evaluate the effects of ActRIIB-Fc proteins and GDF traps on signaling by GDF-11 and activin A. Cell line: human rhabdomyosarcoma (derived from muscle). Reporter vector: pGL3(CAGA)12 (described in Dennler et al, 1998, EMBO 17: 3091-3100). The CAGA12 motif is present in TGF-beta responsive genes (e.g., PAI-1 gene), so this vector is of general use for factors signaling through SMAD2 and 3.
(§4) Day 1: Split A-204 cells into 48-well plate.
(§5) Day 2: A-204 cells transfected with 10 ug pGL3(CAGA)12 or pGL3(CAGA)12(10 ug)+pRLCMV (1 μg) and Fugene.
(§6) Day 3: Add factors (diluted into medium+0.1% BSA). Inhibitors need to be preincubated with factors for 1 hr before adding to cells. Six hrs later, cells were rinsed with PBS and lysed.
(§7) This is followed by a luciferase assay.
(§8) Activity of ActRIIB-Fc proteins and GDF traps was tested in a cell-based assay as described above. Some variants were tested in different C-terminal truncation constructs. As discussed above, truncations of five or fifteen amino acids caused reduction in activity.

GDF11 [4] = biological target: T3, GDF11; assay: Biacore assay, receptor captured with anti-hFc antibody, GDF11 injected; format: binding; conditions: for GDF11 binding, in words: cell-free Biacore assay; for Koff (1/s), GDF11: receptor captured via anti-hFc antibody
Method: as §1, §2

Activin A [5] = biological target: T2, Activin A; assay: A-204 reporter gene assay, inhibition of activin A signaling; format: cell-based; parameters: host or cells: added to A-204 cells (human rhabdomyosarcoma)
Description: as §3, §4, §5, §6, §7, §8

Row | Molecule | Koff (1/s), GDF8 (GDF8) | Koff (1/s), Activin A (Activin A [2]) | Kon (1/Ms), Activin A (Activin A [2]) | Koff (1/s), GDF11 (GDF11 [4]) | further results
1 | NC(=O)NO [HC, Hydroxycarbamide] |  |  |  |  | patients with reductions in spleen size from 25%-50% ([1]; Martinez-Trillos et al. (2010)): up to 35%
2 | Nc1nc(Cl)nc2c1ncn2[C@H]1C[C@H](O)[C@@H](CO)O1 [cladribine] |  |  |  |  | spleen response rate [1]: up to 50%
3 | Nc1cccc2c1CN(C1CCC(=O)NC1=O)C2=O (stereo not shown) [lenalidomide] |  |  |  |  | spleen response rate [1]: 33%
4 | O=C1CCC(N2C(=O)c3ccccc3C2=O)C(=O)N1 (stereo not shown) [thalidomide] |  |  |  |  | spleen response rate [1]: < 20%
5 | ActRIIB(R64K 20-129)-hFc: ActRIIB-hFc variant, residues 20-129, R64K substitution (protein) GRGEAETRECIYYNANWELERTNQSGLERCEGEQDKRLHCYASWKNSSGTIELVKKGCWLDDFNCYDRQECVATEENPQVYFCCCEGNFCNERFTHLPEAGGPEVTYEPPGGGTHTCPPCPAPELLGGPSVFLFPPKPKDTLMISRTPEVTCVVVDVSHEDPEVKFNWYVDGVEVHNAKTKPREEQYNSTYRVVSVLTVLHQDWLNGKEYKCKVSNKALPVPIEKTISKAKGQPREPQVYTLPPSREEMTKNQVSLTCLVKGFYPSDIAVEWESNGQPENNYKTTPPVLDSDGSFFLYSKLTVDKSRWQQGNVFSCSVMHEALHNHYTQKSLSLSPGK | 0.000209 s⁻¹ | 0.000628 s⁻¹ | 7.46e+06 M⁻¹ s⁻¹ |  | 
6 | ActRIIB(L79D 20-134)-hFc: GDF trap: ActRIIB amino acids 20-134 with L79D substitution fused to human Fc, SEQ ID NO: 29 (protein) GRGEAETRECIYYNANWELERTNQSGLERCEGEQDKRLHCYASWRNSSGTIELVKKGCWDDDFNCYDRQECVATEENPQVYFCCCEGNFCNERFTHLPEAGGPEVTYEPPPTAPTGGGTHTCPPCPAPELLGGPSVFLFPPKPKDTLMISRTPEVTCVVVDVSHEDPEVKFNWYVDGVEVHNAKTKPREEQYNSTYRVVSVLTVLHQDWLNGKEYKCKVSNKALPVPIEKTISKAKGQPREPQVYTLPPSREEMTKNQVSLTCLVKGFYPSDIAVEWESNGQPENNYKTTPPVLDSDGSFFLYSKLTVDKSRWQQGNVFSCSVMHEALHNHYTQKSLSLSPGK | 0.00083 s⁻¹ |  |  | 0.000439 s⁻¹ | myostatin binding, in words (GDF8): retains; binding to activin A, in words (Activin A [2]): markedly decreased (non-quantifiable); KD (M), Activin A (Activin A [2]): Low binding; inhibition of GDF-11 activity, in words (GDF11 [3]): almost wild-type; GDF11 binding, in words (GDF11 [4]): retains; inhibition of activin A activity, in words (Activin A [5]): substantial loss
7 | ActRIIB(A24N 20-134)-hFc: ActRIIB(20-134)-hFc variant with A24N substitution (protein) GRGENETRECIYYNANWELERTNQSGLERCEGEQDKRLHCYASWRNSSGTIELVKKGCWLDDFNCYDRQECVATEENPQVYFCCCEGNFCNERFTHLPEAGGPEVTYEPPPTAPTGGGTHTCPPCPAPELLGGPSVFLFPPKPKDTLMISRTPEVTCVVVDVSHEDPEVKFNWYVDGVEVHNAKTKPREEQYNSTYRVVSVLTVLHQDWLNGKEYKCKVSNKALPVPIEKTISKAKGQPREPQVYTLPPSREEMTKNQVSLTCLVKGFYPSDIAVEWESNGQPENNYKTTPPVLDSDGSFFLYSKLTVDKSRWQQGNVFSCSVMHEALHNHYTQKSLSLSPGK |  | 0.000346 s⁻¹ | 3.34e+06 M⁻¹ s⁻¹ | 6.35e-05 s⁻¹ | 
8 | ActRIIB(K74A 20-134)-hFc: ActRIIB(20-134)-hFc variant with K74A substitution (protein) GRGEAETRECIYYNANWELERTNQSGLERCEGEQDKRLHCYASWRNSSGTIELVAKGCWLDDFNCYDRQECVATEENPQVYFCCCEGNFCNERFTHLPEAGGPEVTYEPPPTAPTGGGTHTCPPCPAPELLGGPSVFLFPPKPKDTLMISRTPEVTCVVVDVSHEDPEVKFNWYVDGVEVHNAKTKPREEQYNSTYRVVSVLTVLHQDWLNGKEYKCKVSNKALPVPIEKTISKAKGQPREPQVYTLPPSREEMTKNQVSLTCLVKGFYPSDIAVEWESNGQPENNYKTTPPVLDSDGSFFLYSKLTVDKSRWQQGNVFSCSVMHEALHNHYTQKSLSLSPGK | 2.03e-05 s⁻¹ |  |  |  | 
9 | ActRIIB(L79E 20-134)-hFc: GDF trap form with a glutamate rather than an aspartate at position 79, human Fc fusion (protein) GRGEAETRECIYYNANWELERTNQSGLERCEGEQDKRLHCYASWRNSSGTIELVKKGCWEDDFNCYDRQECVATEENPQVYFCCCEGNFCNERFTHLPEAGGPEVTYEPPPTAPTGGGTHTCPPCPAPELLGGPSVFLFPPKPKDTLMISRTPEVTCVVVDVSHEDPEVKFNWYVDGVEVHNAKTKPREEQYNSTYRVVSVLTVLHQDWLNGKEYKCKVSNKALPVPIEKTISKAKGQPREPQVYTLPPSREEMTKNQVSLTCLVKGFYPSDIAVEWESNGQPENNYKTTPPVLDSDGSFFLYSKLTVDKSRWQQGNVFSCSVMHEALHNHYTQKSLSLSPGK | 0.0009 s⁻¹ |  |  | 0.000274 s⁻¹ | myostatin binding, in words (GDF8): retains; binding to activin A, in words (Activin A [2]): markedly decreased (non-quantifiable); KD (M), Activin A (Activin A [2]): Low binding; inhibition of GDF-11 activity, in words (GDF11 [3]): almost wild-type; GDF11 binding, in words (GDF11 [4]): retains; inhibition of activin A activity, in words (Activin A [5]): substantial loss
10 | ActRIIB(R64K 20-134)-hFc: ActRIIB(20-134)-hFc variant with R64K substitution (protein) GRGEAETRECIYYNANWELERTNQSGLERCEGEQDKRLHCYASWKNSSGTIELVKKGCWLDDFNCYDRQECVATEENPQVYFCCCEGNFCNERFTHLPEAGGPEVTYEPPPTAPTGGGTHTCPPCPAPELLGGPSVFLFPPKPKDTLMISRTPEVTCVVVDVSHEDPEVKFNWYVDGVEVHNAKTKPREEQYNSTYRVVSVLTVLHQDWLNGKEYKCKVSNKALPVPIEKTISKAKGQPREPQVYTLPPSREEMTKNQVSLTCLVKGFYPSDIAVEWESNGQPENNYKTTPPVLDSDGSFFLYSKLTVDKSRWQQGNVFSCSVMHEALHNHYTQKSLSLSPGK | 4.71e-05 s⁻¹ | 0.000325 s⁻¹ | 6.82e+06 M⁻¹ s⁻¹ | 2.41e-05 s⁻¹ | 
11 | ActRIIB(P129S, P130R 20-134)-hFc: ActRIIB(20-134)-hFc variant with P129S and P130R substitutions (protein) GRGEAETRECIYYNANWELERTNQSGLERCEGEQDKRLHCYASWRNSSGTIELVKKGCWLDDFNCYDRQECVATEENPQVYFCCCEGNFCNERFTHLPEAGGPEVTYEPSRTAPTGGGTHTCPPCPAPELLGGPSVFLFPPKPKDTLMISRTPEVTCVVVDVSHEDPEVKFNWYVDGVEVHNAKTKPREEQYNSTYRVVSVLTVLHQDWLNGKEYKCKVSNKALPVPIEKTISKAKGQPREPQVYTLPPSREEMTKNQVSLTCLVKGFYPSDIAVEWESNGQPENNYKTTPPVLDSDGSFFLYSKLTVDKSRWQQGNVFSCSVMHEALHNHYTQKSLSLSPGK | 0.00018 s⁻¹ | 0.000417 s⁻¹ | 5.02e+06 M⁻¹ s⁻¹ |  | 
